Target: Complement C3b, human, purified (human) (UniProt P01024)
Test: SPR

| Substance | Kd |
| --- | --- |
| Factor H CCP1-4 variant R166Q (domain or fragment) | 64.4 µM |
| Factor H CCP1-4, wild type (domain or fragment) | 6.8 µM |
